The numbers were not newly measured in publication PMC9326902, which cites them from elsewhere.

This data set addresses Hemoglobin (Homo sapiens) (UniProt P69905).
Chain of UniProt P69905 (P69905 2-142, chain 1 of 2): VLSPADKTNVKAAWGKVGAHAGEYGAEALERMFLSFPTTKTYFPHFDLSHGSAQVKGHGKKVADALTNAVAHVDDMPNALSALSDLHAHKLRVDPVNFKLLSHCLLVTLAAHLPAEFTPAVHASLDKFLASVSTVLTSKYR
Chain of UniProt P69905 (P68871 2-147, chain 2 of 2, further chain): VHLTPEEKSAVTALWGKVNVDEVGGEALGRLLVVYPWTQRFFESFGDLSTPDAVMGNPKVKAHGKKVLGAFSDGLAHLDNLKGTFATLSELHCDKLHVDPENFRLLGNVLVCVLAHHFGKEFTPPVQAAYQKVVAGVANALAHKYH

Regarding IsdH N2 (from UniProt Q2FXJ2), the Kd was 7.5 µM.
